# From the supplement of paper PMC6755084
# B1: F1*; a variant is named by its letters at N, in order (parent)
# chain: GAGACCGCAACTGAAAAGTTGTTATCNNNNNNNNAANNNNNTTNGNNGGGTTGAAGTTCTGCACGTAGAAGCAAAAGGC
# B2: F1*; a variant is named by its letters at N, in order (parent)
# chain: GAGACCGCAACTGAAAAGTTGTTATCACTTGTCGNANNNNNNTTNGNNNGGNTNNNGTTCTGCACGTAGAAGCAAAAGGC
# B3: F1*; the commonest letter at each place (parent)
# chain: GAGACCGCAACTGAAAAGTTGTTATCACTTGTCGTAAGACACTTTGGATGGGTTGAAGTTCTGCACGTAGAAGCAAAAGGC
# Variants of: B1
# Test: fraction ligated after 30 min (ligated reads / total reads); higher = more ligase activity
# Details: with F1*sub RNA substrate (template-directed ligation), 42 °C
# Procedure: (§1)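 Chip-synthesised pool of F1* ligase ribozyme variants (all single and double substitutions, single, double and triple deletions in the catalytic core and GAA bulge, plus designed variants) was transcribed with T7 and reacted as a pool with excess substrate F1*sub for 30 min at 42 C in 50 mM EPPS pH 8.5, 25 mM MgCl2. Ligated and unligated bands were separated by PAGE, barcoded by RT and deep sequenced; fraction ligated = ligated reads / total reads per variant, relative activity = FL / FL of wild type (0.826). Sequences are the DNA template of the ribozyme.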
row,Variant,fraction ligated
1,GAGACCGCAACTGAAAAGTTGTTATCATTGTCGTAAGACCTTTGGATGGGTTGAAGTTCTGCACGTAGAAGCAAAAGGC,0.79
2,GAGACCGCAACTGAAAAGTTGTTATCATTGTCGTAAGCACTTTGGATGGGTTGAAGTTCTGCACGTAGAAGCAAAAGGC,0.777
3,GAGACCGCAACTGAAAAGTTGTTATCCTTGTCGTAAGCACTTTGGATGGGTTGAAGTTCTGCACGTAGAAGCAAAAGGC,0.776

# Variants of: B2
# Test: as above
# Details: with F1*sub RNA substrate (template-directed ligation), 42 °C
# Procedure: as §1
row,Variant,fraction ligated
1,GAGACCGCAACTGAAAAGTTGTTATCACTTGTCGTAAGACACTTTGGATGGGTTTTGTTCTGCACGTAGAAGCAAAAGGC,0.0147
2,GAGACCGCAACTGAAAAGTTGTTATCACTTGTCGTAAGACACTTTGGATGGGTTTGGTTCTGCACGTAGAAGCAAAAGGC,0.0257
3,GAGACCGCAACTGAAAAGTTGTTATCACTTGTCGTAAGACACTTTGGATGGGTTTCGTTCTGCACGTAGAAGCAAAAGGC,0.0084
4,GAGACCGCAACTGAAAAGTTGTTATCACTTGTCGTAAGACACTTTGGATGGGTTTAGTTCTGCACGTAGAAGCAAAAGGC,0.834
5,GAGACCGCAACTGAAAAGTTGTTATCACTTGTCGTAAGACCTTTGGATGGGTTGAAGTTCTGCACGTAGAAGCAAAAGGC,0.839
6,GAGACCGCAACTGAAAAGTTGTTATCACTTGTCGTAAACACTTTGGATGGGTTGAAGTTCTGCACGTAGAAGCAAAAGGC,0.832
7,GAGACCGCAACTGAAAAGTTGTTATCACTTGTCGAAGACACTTTGGATGGGTTGAAGTTCTGCACGTAGAAGCAAAAGGC,0.843
8,GAGACCGCAACTGAAAAGTTGTTATCACTTGTCGTAAGCACTTTGGATGGGTTGAAGTTCTGCACGTAGAAGCAAAAGGC,0.827
9,GAGACCGCAACTGAAAAGTTGTTATCACTTGTCGTAGACACTTTGGATGGGTTGAAGTTCTGCACGTAGAAGCAAAAGGC,0.849
10,GAGACCGCAACTGAAAAGTTGTTATCACTTGTCGTAAGACACTTTGGATGGGTTGCGTTCTGCACGTAGAAGCAAAAGGC,0.802
11,GAGACCGCAACTGAAAAGTTGTTATCACTTGTCGTAAGACACTTTGGATGGGTTGTGTTCTGCACGTAGAAGCAAAAGGC,0.349
12,GAGACCGCAACTGAAAAGTTGTTATCACTTGTCGTAAGACACTTTGGATGGGTTGAGTTCTGCACGTAGAAGCAAAAGGC,0.848
13,GAGACCGCAACTGAAAAGTTGTTATCACTTGTCGTAAGACACTTTGGATGGGTTGGGTTCTGCACGTAGAAGCAAAAGGC,0.352
14,GAGACCGCAACTGAAAAGTTGTTATCACTTGTCGTAAGACACTTGGATGGGTTGAAGTTCTGCACGTAGAAGCAAAAGGC,0.799
15,GAGACCGCAACTGAAAAGTTGTTATCACTTGTCGTAAGACACTTTGGATGGTTGAAGTTCTGCACGTAGAAGCAAAAGGC,0.703
16,GAGACCGCAACTGAAAAGTTGTTATCACTTGTCGTAAGACATTTGGATGGGTTGAAGTTCTGCACGTAGAAGCAAAAGGC,0.829
17,GAGACCGCAACTGAAAAGTTGTTATCACTTGTCGTAAGAACTTTGGATGGGTTGAAGTTCTGCACGTAGAAGCAAAAGGC,0.821
18,GAGACCGCAACTGAAAAGTTGTTATCACTTGTCGTAAGACACTTTGGATGGGTTCTGTTCTGCACGTAGAAGCAAAAGGC,0.0184
19,GAGACCGCAACTGAAAAGTTGTTATCACTTGTCGTAAGACACTTTGGATGGGTTCCGTTCTGCACGTAGAAGCAAAAGGC,0.0263
20,GAGACCGCAACTGAAAAGTTGTTATCACTTGTCGTAAGACACTTTGGATGGGTTCGGTTCTGCACGTAGAAGCAAAAGGC,0.0205
21,GAGACCGCAACTGAAAAGTTGTTATCACTTGTCGTAAGACACTTTGGATGGGTTCAGTTCTGCACGTAGAAGCAAAAGGC,0.792
22,GAGACCGCAACTGAAAAGTTGTTATCACTTGTCGTAAGACACTTTGATGGGTTGAAGTTCTGCACGTAGAAGCAAAAGGC,0.782
23,GAGACCGCAACTGAAAAGTTGTTATCACTTGTCGTAAGACACTTTGGAGGGTTGAAGTTCTGCACGTAGAAGCAAAAGGC,0.168
24,GAGACCGCAACTGAAAAGTTGTTATCACTTGTCGTAAGACACTTTGGTGGGTTGAAGTTCTGCACGTAGAAGCAAAAGGC,0.354
25,GAGACCGCAACTGAAAAGTTGTTATCACTTGTCGTAAGACACTTTGGATGGGTTAAGTTCTGCACGTAGAAGCAAAAGGC,0.834
26,GAGACCGCAACTGAAAAGTTGTTATCACTTGTCGTAAGACACTTTGGATGGGTTACGTTCTGCACGTAGAAGCAAAAGGC,0.56
27,GAGACCGCAACTGAAAAGTTGTTATCACTTGTCGTAAGACACTTTGGATGGGTTAGGTTCTGCACGTAGAAGCAAAAGGC,0.773
28,GAGACCGCAACTGAAAAGTTGTTATCACTTGTCGTAAGACACTTTGGATGGGTTATGTTCTGCACGTAGAAGCAAAAGGC,0.762

# Variants of: B3
# Test: as above
# Details: with F1*sub RNA substrate (template-directed ligation), 42 °C
# Procedure: as §1
row,Variant,fraction ligated
1,GAGACCGCAACTGAAAAGTTGTAATCGCTTGTCGTAAGACACTTTGGATGGGTTGAAGTTCTGCACGTAGAAGCAAAAGGC,0.794
2,GAGACCGCAACTGAAAAGTTGTAATCCCTTGTCGTAAGACACTTTGGATGGGTTGAAGTTCTGCACGTAGAAGCAAAAGGC,0.82
3,GAGACCGCAACTGAAAAGTTGTAATCTCTTGTCGTAAGACACTTTGGATGGGTTGAAGTTCTGCACGTAGAAGCAAAAGGC,0.794
